Drawing on patent publication US20080171347A1, this text covers percent inhibition (maximum for one substance.

For this assay, the target named is mouse synaptosomes (synaptosome preparation carrying the BoNT/A acceptor complex).

On to “active botulinum neurotoxin type A (BoNT/A) (from UniProt P0DPI1 2-1296)”, for which the percent inhibition (maximum at plateau) amounted to 78%.
